Results on one molecule are retold here after patent US20170355768A1 (Bristol-Myers Squibb, published 2017).

The test addresses T1, human SLAM family member 7 (hSLAMF7) expressed on A20-hSLAMF7-GFP cells (human, UniProt Q9NQ25 23-335).
T1 construct: also called CS1; CS1-L
Put plainly: flow cytometry, 6.25 ug/ml Elotuzumab on A20-hSLAMF7-GFP cells, anti-human IgG-PE secondary. As to the method:
FIG. 3. Elotuzumab binding to hSLAMF7 expressed in A20 cells was confirmed by flow cytometry. A20-GFP or A20-hSLAMF7-GFP cells were incubated with 6.25 ug/ml Elotuzumab (BMS), washed twice and incubated with anti-human IgG-PE secondary antibody. The frequency of cells staining positive for GFP and hSLAMF7 is shown at 0 days.
To determine whether hSLAMF7 expressed in A20 is recognized by Elotuzumab, A20-GFP and A20-hSLAMF7-GFP cells were stained with Elotuzumab. A20-GFP or A20-hSLAMF7-GFP cells were incubated with 6.25 ug/ml Elotuzumab (BMS), washed twice and incubated with anti-human IgG-PE secondary antibody. The frequency of cells staining positive for GFP and hSLAMF7 was determined using flow cytometry.
A general note: Flow cytometry measures light scatter and fluorescence of single cells or particles in a stream.

B1: Elotuzumab (antibody, V domains shown)
VH: EVQLVESGGGLVQPGGSLRLSCAASGFDFSRYWMSWVRQAPGKGLEWIGEINPDSSTINYAPSLKDKFIISRDNAKNSLYLQMNSLRAEDTAVYYCARPDGNYWYFDVWGQGTLVTVSS
VL: DIQMTQSPSSLSASVGDRVTITCKASQDVGIAVAWYQQKPGKVPKLLIYWASTRHTGVPDRFSGSGSGTDFTLTISSLQPEDVATYYCQQYSSYPYTFGQGTKVEIK
notes: also called BMS-901608; HuLuc63
In the case of B1, the binding result is “binds”.
